Measured values: patent publication US20090111753A1, “Nogo-A Polypeptide Fragments, Variant Nogo Receptor-1 Polypeptides, and Uses Thereof” (Yale University, priority 2004, published 2009)
Substitutions are numbered along the chain they refer to.

T1: AP-Nogo66 (Homo sapiens, UniProt Q9NQC3)
T1 construct: made in house; NgR mutants: COS-7
T1 sequence (Q9NQC3 1055-1120 limits assumed): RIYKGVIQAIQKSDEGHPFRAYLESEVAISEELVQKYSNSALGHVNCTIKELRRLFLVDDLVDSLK

T2: AP-B4C (Homo sapiens, UniProt Q9NQC3)
T2 construct: a.a; 950-1018 (AmNg B4C); made in house; host or cells: AP ligand: HEK293T conditioned medium; NgR mutants: COS-7
T2 sequence (Q9NQC3 950-1018): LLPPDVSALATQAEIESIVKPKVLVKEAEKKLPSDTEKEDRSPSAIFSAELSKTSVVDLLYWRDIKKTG

T3: AP-Lingo-1 (Homo sapiens, UniProt Q96FE5)
T3 construct: made in house; NgR mutants: COS-7
T3 sequence (Q96FE5 40-538 limits assumed): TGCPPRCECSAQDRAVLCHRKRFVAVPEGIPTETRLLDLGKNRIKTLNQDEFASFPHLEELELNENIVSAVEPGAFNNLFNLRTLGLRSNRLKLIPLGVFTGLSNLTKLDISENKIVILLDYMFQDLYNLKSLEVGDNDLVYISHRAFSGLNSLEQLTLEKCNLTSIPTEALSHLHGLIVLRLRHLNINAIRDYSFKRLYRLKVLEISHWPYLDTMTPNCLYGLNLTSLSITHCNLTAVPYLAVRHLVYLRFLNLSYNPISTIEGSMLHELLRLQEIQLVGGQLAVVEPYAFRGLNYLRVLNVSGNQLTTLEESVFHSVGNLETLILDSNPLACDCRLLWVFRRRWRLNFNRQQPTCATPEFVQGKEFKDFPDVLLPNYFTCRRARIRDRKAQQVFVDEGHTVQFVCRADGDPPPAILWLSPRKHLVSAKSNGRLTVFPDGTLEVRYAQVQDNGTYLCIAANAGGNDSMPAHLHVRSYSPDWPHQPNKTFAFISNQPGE

B1: 216, 218, 220: human NgR1 mutant, listed residues mutated to alanine (protein)
chain: CPGACVCYNEPKVTTSCPQQGLQAVPVGIPAASQRIFLHGNRISHVPAASFRACRNLTILWLHSNVLARIDAAAFTGLALLEQLDLSDNAQLRSVDPATFHGLGRLHTLHLDRCGLQELGPGLFRGLAALQYLYLQDNALQALPDDTFRDLGNLTHLFLHGNRISSVPERAFRGLHSLDRLLLHQNRVAAVAPAAFRDLGRLMTLYLFANNLSALPTEALAPLRALQYLRLNDNPWVCDCRARPLWAWLQKFRGSSSEVPCSLPQRLAGRDLKRLAANDLQGCAVATGPYHPIWTGRATDEEPLGLPKCCQPDAADKASVLEPGRPASAGNALKGRVPPGDSPPGNGSGPRHINDSPFGTLPGSAEPPLTAVRPEGSEPPGFPTSGPRRRPGCSRKNRTRSHCRLGQAGSGGGGTGDSEGSGALPSLTCSLTPLGLALVLWTVLGPC
B2: 220, 223, 224: human NgR1 mutant, listed residues mutated to alanine (protein)
chain: B1 chain with A190H, A192H, R197A, D198A
B3: 237, 256, 259: human NgR1 mutant, listed residues mutated to alanine (protein)
chain: B1 chain with A190H, A192H, A194H, N211A, R230A, D233A
B4: 256, 259, 284: human NgR1 mutant, listed residues mutated to alanine (protein)
chain: B1 chain with A190H, A192H, A194H, R230A, D233A, E258A
B5: 61, 108, 131: human NgR1 mutant, listed residues mutated to alanine (protein)
chain: B1 chain with R35A, E82A, R105A, A190H, A192H, A194H
B6: 63, 65, 87, 89: human NgR1 mutant, listed residues mutated to alanine (protein)
chain: B1 chain with F37A, H39A, W61A, H63A, A190H, A192H, A194H
B7: 237, 256, 284: human NgR1 mutant, listed residues mutated to alanine (protein)
chain: B1 chain with A190H, A192H, A194H, N211A, R230A, E258A
B8: 87, 89: human NgR1 mutant, listed residues mutated to alanine (protein)
chain: B1 chain with W61A, H63A, A190H, A192H, A194H
B9: 89, 90: human NgR1 mutant, listed residues mutated to alanine (protein)
chain: B1 chain with H63A, S64A, A190H, A192H, A194H
B10: 95, 97: human NgR1 mutant, listed residues mutated to alanine (protein)
chain: B1 chain with R69A, D71A, A190H, A192H, A194H

test system: NgR ligands; assay: Binding of alanine substituted NgR mutants to NgR ligands, summary categories; details: AP-Nogo66, AP-B4C, AP-B4C66, AP-Lingo-1, AP-OMgp and AP-MAG; compared to wild type NgR
In short: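 Human NgR1 template; 74 mutants with 1-8 solvent-exposed charged surface residues (within 5 Å) Ala-substituted, plus glycosylation-site mutants and D259N polymorphism. Mutants tested for binding of AP-tagged Nogo66, Amino-Nogo-B4C, B4C66, MAG, OMgp and Lingo-1; each classed as losing all, keeping all, or selective ligand binding.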

| Molecule | ligand binding category of NgR mutant (Table II) |
| --- | --- |
| B1 | Differential binding |
| B2 | Differential binding |
| B3 | Differential binding |
| B4 | Differential binding |
| B5 | Differential binding |
| B6 | Differential binding |
| B7 | Differential binding |
| B8 | Differential binding |
| B9 | Differential binding |
| B10 | Differential binding |

target: T1, AP-Nogo66; assay: Binding of AP-Nogo66 to COS-7 cells expressing NgR mutants; parameters: key: ++: WT level; +: weaker than wild type; trace binding; −: no binding; details: AP-Ng66 5 nM; level of binding compared to wild type NgR
Procedure: (§1) FIG. 4A. […] Binding of AP or AP fused NgR ligands to COS-7 cells expressing different NgR mutants as indicated. The concentrations of ligands applied were: AP, 30 nM; AP-Ng66, 5 nM; AP-Ng33, 10 nM; AP-B4C, 10 nM; AP-B4C66, 0.5 nM; AP-Lingo-1, 10 nM; AP-OMGP, 10 nM; AP-MAG, 30 nM. These concentrations are close to the binding Kd of these proteins to NgR so that any […] is reflected linearly in staining.
(§2) FIG. 4B. AP binding of NgR ligands to NgR mutants expressed as percentage of wild type NgR. AP after incubation with AP fused ligands, AP bound to COS-7 cells expressing NgR or NgR mutants were stained and measured.
(§3) To better define how multiple ligands bind to the NgR protein, we examined a series of Ala-substituted NgR for ligand binding activity. NgR mutagenesis was done using the Quick Change Multisite Directed Mutagenesis Kit (Stratagene catalog #200514). Human NgR1 was used as a template. Ala substitutions were generated for each of the charged residues predicted to be solvent accessible at the surface of the ligand binding domain of NgR (Barton, W. A., et al., Embo J. 22:3291-3302 (2003); He, X. L., et al., Neuron 38:177-185 (2003)). We generated mutants in which 1-8 surface residues localized within 5 A of one another were Ala-substituted. Because of the coiling nature of the LRR structure, as residues juxtaposed on the protein surface are commonly separated by approximately 25 residues in the primary structure. In addition to mutations in specific charged surface patches, other mutations were targeted to glycosylation sites and to regions predicted to be involved in ligand binding based on the NgR structure (Barton, W. A., et al., Embo J. 22:3291-3302 (2003); He, X. L., et al., Neuron 38:177-185 (2003)). In addition, a variant corresponding to a human polymorphism was examined (D259N). None of the mutations altered the Leu residues that define the LRR structure itself or the Cys residues critical in the amino and carboxyl terminal capping domains. The vast majority of such Ala surface substitution mutants were expressed as immunoreactive polypeptides with a molecular weight and an expression level indistinguishable from wild type NgR (FIG. 4C and data not shown).
(§4) This collection of 74 individual NgR mutants was interrogated for AP-Nogo-66, AP-Amino-Nogo-B4C, AP-MAG, AP-OMgp, and AP-Lingo-1 binding. AP-Nogo66, AP-MAG, AP-OMGP and AP-Lingo-1 constructs are described elsewhere (Fournier, A. E., et al., Nature 409:341-346 (2001); Liu, B. P., et al., Science 297:1190-1193 (2002); Mi, S., et al., Nat. Neurosci. 7:221-228 (2004); Wang, K. C., et al., Nature 417:941-944 (2002b)). The properties of the NgR mutants fell into one of three major categories (Table II and FIG. 5). A number of Ala substituted NgR polypeptides bound all of the ligands at wild type levels. […] In addition, a significant extent of the concave surface is dispensable for ligand binding.
(§5) Binding of Alanine substituted NgR mutants to NgR ligands were compared to wild type NgR and the levels of binding were categorized as ++ (WT level), + (weaker than wild type), tr (trace binding), − (no binding), N/A (not determined). NgR mutant proteins were also subjected to SDS-PAGE and probed by anti-NgR antibodies. Mutants with expression level similar to WT NgR were labeled as “y”.

| Molecule | Ng66 |
| --- | --- |
| B1 | ++ |
| B2 | + |
| B3 | tr |
| B4 | + |
| B5 | tr |
| B6 | ++ |
| B7 | ++ |
| B8 | ++ |
| B9 | + |
| B10 | + |

target: T2, AP-B4C; assay: Binding of AP-B4C to COS-7 cells expressing NgR mutants; parameters: key: ++: WT level; +: weaker than wild type; trace binding; −: no binding; details: AP-B4C 10 nM; level of binding compared to wild type NgR
Procedure: as §1, §2, §3, §4, §5

| Molecule | B4C |
| --- | --- |
| B1 | ++ |
| B2 | + |
| B3 | tr |
| B4 | + |
| B5 | + |
| B6 | ++ |
| B7 | ++ |
| B8 | ++ |
| B9 | + |
| B10 | ++ |

test system: AP-B4C66; assay: Binding of AP-B4C66 to COS-7 cells expressing NgR mutants; parameters: key: ++: WT level; +: weaker than wild type; trace binding; −: no binding; details: AP-B4C66 0.5 nM; level of binding compared to wild type NgR
Procedure: as §1, §2, §3, §4, §5

| Molecule | B4C-66 |
| --- | --- |
| B1 | ++ |
| B2 | + |
| B3 | + |
| B4 | ++ |
| B5 | + |
| B6 | ++ |
| B7 | ++ |
| B8 | ++ |
| B9 | + |
| B10 | + |

target: T3, AP-Lingo-1; assay: Binding of AP-Lingo-1 to COS-7 cells expressing NgR mutants; parameters: key: ++: WT level; +: weaker than wild type; trace binding; −: no binding; details: AP-Lingo-1 10 nM; level of binding compared to wild type NgR
Procedure: as §1, §2, §3, §4, §5

| Molecule | Lingo-1 |
| --- | --- |
| B1 | + |
| B2 | − |
| B3 | + |
| B4 | ++ |
| B5 | − |
| B6 | − |
| B7 | ++ |
| B8 | − |
| B9 | − |
| B10 | + |

test system: AP-OMgp; assay: Binding of AP-OMgp to COS-7 cells expressing NgR mutants; parameters: key: ++: WT level; +: weaker than wild type; trace binding; −: no binding; details: AP-OMGP 10 nM; level of binding compared to wild type NgR
Procedure: as §1, §2, §3, §4, §5

| Molecule | OMgp |
| --- | --- |
| B1 | + |
| B2 | − |
| B3 | tr |
| B4 | + |
| B5 | − |
| B6 | + |
| B7 | + |
| B8 | + |
| B9 | − |
| B10 | tr |

test system: AP-MAG; assay: Binding of AP-MAG to COS-7 cells expressing NgR mutants; parameters: key: ++: WT level; +: weaker than wild type; trace binding; −: no binding; details: AP-MAG 30 nM; level of binding compared to wild type NgR
Procedure: as §1, §2, §3, §4, §5

| Molecule | MAG |
| --- | --- |
| B1 | tr |
| B2 | tr |
| B3 | − |
| B4 | − |
| B5 | − |
| B6 | − |
| B7 | − |
| B8 | + |
| B9 | − |
| B10 | tr |
